Experiments:
GLP-1 receptor (GLP-1R) = GLP-1 receptor (GLP-1R) (UniProt P43220)
[1] = cited from earlier work
Source text: Although GLP-1 exerts significant effects in an individual’s body, its short half-life is a significant drawback. Many studies have been conducted in effort to overcome the hurdles of GLP-1 and to develop it as a medication. Traditional efforts to increase the size of small therapeutic proteins have included polyethylene glycol (PEG) conjugation. […] The in vitro activity of GLP1_8A37C-HSA was greater than that of GLP1_8G37C-HSA, probably due to the alanine to glycine change at position 8 (A8G) affecting the interactions with GLP-1R. […] Despite the low EC50 value of GLP1_ ...

GLP-1R = molecular target: T1, GLP-1R (Homo sapiens, UniProt P43220); assay: In vitro activity assay: cAMP production by GLP-1R-overexpressing HEK-293 cells; type: cell-based; conditions: HEK293 cells transfected with pcDNA3.1-GLP-1R_tango; 15 min exposure; cAMP Parameter Assay Kit; normalized to cAMP with 1 μM GLP1_C; dose-response fit in OriginPro; n = 3/group
T1 construct: Tango fusion cassette (named only as '_tango' in the plasmid name); host or cells: HEK293 (ATCC), transiently transfected
T1 sequence (P43220 24-463): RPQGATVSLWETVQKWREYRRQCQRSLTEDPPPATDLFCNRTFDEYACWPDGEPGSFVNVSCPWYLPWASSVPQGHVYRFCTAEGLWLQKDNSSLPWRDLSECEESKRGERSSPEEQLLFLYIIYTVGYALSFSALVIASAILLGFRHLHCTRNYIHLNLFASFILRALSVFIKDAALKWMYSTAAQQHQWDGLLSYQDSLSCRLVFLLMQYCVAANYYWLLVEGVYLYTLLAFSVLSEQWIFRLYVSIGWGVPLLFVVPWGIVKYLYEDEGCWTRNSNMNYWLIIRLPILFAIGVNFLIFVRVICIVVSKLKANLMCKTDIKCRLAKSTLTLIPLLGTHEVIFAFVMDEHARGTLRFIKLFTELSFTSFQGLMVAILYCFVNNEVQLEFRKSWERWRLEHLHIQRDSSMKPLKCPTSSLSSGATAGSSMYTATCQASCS
Protocol: The plasmid pcDNA3.1-GLP-1R_tango (Addgene, Cambridge, MA, USA) and transfection reagent were then mixed in serum-free medium for 20 min, in accordance with the manufacturer’s recommendation. […] The levels of cAMP in the cell lysate were measured using the cAMP Parameter Assay Kit following the manufacturer’s protocol. […] The half maximal effective concentrations (EC50) of each curve were estimated from a dose–response curve using OriginPro software. Absorbance at 450 nm was monitored using a Varioskan Lux microplate reader (Thermo Fisher Scientific).

Sequence of GLP-1 receptor (GLP-1R) (P43220 24-463): as above

Molecule: GLP1_8A37C-HSA (from UniProt P02768 25-609)
- EC50 of cAMP production by GLP-1R-overexpressing HEK-293 cells (GLP-1 receptor (GLP-1R)): 0.185 µM

Molecule: Glucagon-like peptide-1 [GLP-1]
- half-life in the body ([1]; reported, reference not given): 2 to 3 min

Molecule: GLP1_8G37C-HSA: GLP1-HSA conjugate, HSA conjugated to GLP1_8G37C via Michael addition and IEDDA (HGEGTFTSDVSSYLEGQAAKEFIAWLVRGRC; not fully specified; GLP-1(7-37) A8G, G37C; Cys37 is joined through TET-PEG4-maleimide / TCO-maleimide (IEDDA) to Cys34 of human serum albumin (carrier, UniProt P02768 25-609, not included); K34R is inferred from the expe)
- EC50 (GLP-1R): 1.34 µM

Molecule: GLP1_8G16AzF-HSA: GLP1-HSA conjugate generated by HSA conjugation to position 16 of GLP-1 via SPAAC (HGEGTFTSDFSSYLEGQAAKEFIAWLVRGRG; not fully specified; GLP-1(7-37) A8G; Residue 16 (entry position 10) is p-azido-L-phenylalanine, written as parent Phe, joined by SPAAC through DBCO-PEG4-maleimide to Cys34 of human serum albumin (carrier, UniProt P02768)
- EC50 (GLP-1R): 1.11 µM

Molecule: GLP1_8G37C-HSA (from UniProt P02768 25-609)
- EC50 of cAMP production by GLP-1R-overexpressing HEK-293 cells (GLP-1 receptor (GLP-1R)): 1.34 µM

Molecule: CC[C@H](C)[C@H](NC(=O)[C@H](Cc1ccccc1)NC(=O)[C@H](CCC(=O)O)NC(=O)[C@H](CCCCN)NC(=O)[C@H](C)NC(=O)[C@H](C)NC(=O)[C@H](CCC(N)=O)NC(=O)CNC(=O)[C@H](CCC(=O)O)NC(=O)[C@H](CC(C)C)NC(=O)[C@H](Cc1ccc(O)cc1)NC(=O)[C@H](CO)NC(=O)[C@H](CO)NC(=O)[C@@H](NC(=O)[C@H](CC(=O)O)NC(=O)[C@H](CO)NC(=O)[C@@H](NC(=O)[C@H](Cc1ccccc1)NC(=O)[C@@H](NC(=O)CNC(=O)[C@H](CCC(=O)O)NC(=O)[C@H](C)NC(=O)[C@@H](N)Cc1c[nH]cn1)[C@@H](C)O)[C@@H](C)O)C(C)C)C(=O)N[C@@H](C)C(=O)N[C@@H](Cc1c[nH]c2ccccc12)C(=O)N[C@@H](CC(C)C)C(=O)N[C@H](C(=O)N[C@@H](CCCNC(=N)N)C(=O)NCC(=O)N[C@@H](CCCNC(=N)N)C(=O)NCC(=O)O)C(C)C [GLP1_C]
- plasma half-life ([1]; in animal): only a few minutes in animal

Molecule: GLP1_8A37C-HSA: GLP1-HSA conjugate with alanine at position 8 and albumin at its C-terminus (HAEGTFTSDVSSYLEGQAAKEFIAWLVRGRC; not fully specified; GLP-1(7-37), Ala8 kept, G37C; Cys37 is joined through TET-PEG4-maleimide / TCO-maleimide (IEDDA) to Cys34 of human serum albumin (carrier, UniProt P02768 25-609, not included))
- EC50 (GLP-1R): 0.185 µM

From paper PMC7919490, “Effect of C-terminus Conjugation via Different Conjugation Chemistries on In Vivo Activity of Albumin-Conjugated Recombinant GLP-1” (Pharmaceutics, 2021)
